Like-named read-outs stand apart in the source and are kept apart here.
T1: Cynomolgus Monkey CD3 epsilon protein (Cynomolgus monkey, UniProt Q95LI5 22-117)
T1 construct: Bought protein; also called Cyno-Monkey CD3epsilon
T1 sequence (looked up): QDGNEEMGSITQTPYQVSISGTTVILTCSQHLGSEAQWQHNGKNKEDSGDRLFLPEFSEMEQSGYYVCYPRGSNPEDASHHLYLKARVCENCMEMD


Tests used:
[1] = target: T1, Cynomolgus Monkey CD3 epsilon protein; assay: ELISA, antigen coated on plate
[2] = target: T2, Human CD3 epsilon (CD3epsilon) protein (His Tag) (human, UniProt P07766 23-126); assay: ELISA, antigen coated on plate
T2 construct: extracellular domain; Bought protein; also called recombinant human CD3epsilon ECD; not shown: His tag
T2 sequence (P07766 23-126): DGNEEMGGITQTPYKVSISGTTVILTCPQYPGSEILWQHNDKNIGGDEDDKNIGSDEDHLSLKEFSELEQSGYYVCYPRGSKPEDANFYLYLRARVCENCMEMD

[3] = target: T3, Human CD3 delta (CD3 delta) protein (His Tag) (human, UniProt P04234 22-105); assay: ELISA, antigen coated on plate
T3 construct: extracellular domain; Bought protein; not shown: His tag
T3 sequence (P04234 22-105, stated change not applied): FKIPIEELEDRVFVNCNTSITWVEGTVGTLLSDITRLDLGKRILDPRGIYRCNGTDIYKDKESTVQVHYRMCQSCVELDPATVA

[4] = target: T4, Human CD3 Gamma (CD3gamma) protein (human, UniProt P09693 23-116); assay: ELISA, antigen coated on plate
T4 construct: extracellular domain; Bought protein
T4 sequence (P09693 23-116): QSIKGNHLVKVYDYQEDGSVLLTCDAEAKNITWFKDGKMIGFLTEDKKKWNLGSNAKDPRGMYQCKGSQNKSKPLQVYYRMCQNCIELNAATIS

[5] = target: T5, human CD3 expressed on cells (Jurkat cells; human CD4 T cells) (human, UniProt P07766 23-207); assay: flow cytometry on Jurkat cells, one site saturation fit; design: Best fit-Bmax: unit not given here
T5 construct: whole, on cells; also called human CD3 receptor on T cell surface; human CD3 expressing cells (Jurkat cells)
T5 sequence (P07766 23-207): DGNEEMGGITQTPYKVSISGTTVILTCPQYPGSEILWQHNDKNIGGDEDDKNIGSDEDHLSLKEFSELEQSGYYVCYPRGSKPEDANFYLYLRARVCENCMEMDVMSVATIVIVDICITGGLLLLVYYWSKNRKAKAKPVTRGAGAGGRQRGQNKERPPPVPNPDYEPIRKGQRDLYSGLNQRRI

[6] = target: T3, Human CD3 delta (CD3 delta) protein …; assay: ELISA, antigen coated on plate, HRP-labelled 2nd antibody
Method: (§1) Human CD3epsilon, CD3delta and CD3gamma proteins were pre-coated in 96-well plates, respectively. The binding affinity of eight mAbs at various concentrations to these three different CD3 protein extracellular domain was detected by corresponding HRP labeled 2nd antibodies. The binding EC₅₀ (concentration of the test antibody when reaching half maximum binding) were analyzed by using GraphPad Prism software equation: Nonlinear regression (curve fit)—log (agonist) vs. response-Variable slope.

[7] = target: T2, Human CD3 epsilon (CD3epsilon) protein …; assay: as above
Method: as §1

[8] = target: T4, Human CD3 Gamma (CD3gamma) protein; assay: as above
Method: as §1

[9] = target: T1, Cynomolgus Monkey CD3 epsilon protein; assay: ELISA, antigen coated on plate; remark: listed apart in the source
[10] = target: T2, Human CD3 epsilon (CD3epsilon) protein …; assay: ELISA, antigen coated on plate; remark: listed apart in the source
[11] = target: T5, human CD3 expressed on cells (Jurkat …); assay: flow cytometry on Jurkat cells
Method: Various concentrations of testing mAbs were added to Jurkat cells, and then the binding activity of mAbs onto the surface of cells was detected by 2nd antibody-FITC. OKT3 was used as the positive control. The stained cells were analyzed by using a BD Biosciences FACSCanto II instrument and Flow Jo Version software. The binding EC₅₀ were calculated by using GraphPad Prism software equation: Nonlinear regression (curve fit)—log (agonist) vs. response-Variable slope.

[12] = target: T5, human CD3 expressed on cells (Jurkat …); assay: flow cytometry on human CD4 T cells
mouse CD3epsilon protein [13] = target: T6, mouse CD3epsilon protein (mouse, UniProt P22646 22-108, limits assumed); assay: ELISA, antigen coated on plate
T6 sequence (P22646 22-108 limits assumed): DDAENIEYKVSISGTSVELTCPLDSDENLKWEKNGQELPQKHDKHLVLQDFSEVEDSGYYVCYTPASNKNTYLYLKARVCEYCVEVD

mouse CD3epsilon protein [14] = target: T6, mouse CD3epsilon protein; assay: ELISA, antigen coated on plate; remark: listed apart in the source
[15] = target: T1, Cynomolgus Monkey CD3 epsilon protein; assay: ELISA, antigen coated on plate; remark: listed apart in the source
[16] = target: T5, human CD3 expressed on cells (Jurkat …); assay: flow cytometry on Jurkat cells, one site saturation fit

Row | Binder | EC50 [1] | EC50 [2] | binding result [3] | binding result [4] | Best fit-Bmax [5] | Kd [5] | ELISA (A450) [6] | ELISA (A450) [7] | ELISA (A450) [8] | ELISA (A450) [9] | ELISA (A450) [10] | EC50 [11] | MFI (FACS) [11] | EC50 [12] | binding result (mouse CD3epsilon protein [13]) | ELISA (A450) (mouse CD3epsilon protein [14]) | EC50 [15] | Kd [16]
1 | WBP3311_2.400.5 (antibody, V domains shown, Mouse monoclonal antibody from hybridoma; also called W3311-2.400.5) VH: QVQLQQSGPELVNPGASVKISCKASGYSFTNYYLHWVKQRPGQGLEWIGWIFPESDNTKYNEKLKGKATLTADTSSDTAYMHLSSLTFEDSAVYFCARDSVGNYFFDFWGQGTTLTVSS VL: DIVMSQSPSSLAVSAGEKVTMRCKSSQSLVNNRTRKNYLAWYQQKPGQPPKLLIYWASTRESGVPDRFTGSGSGTDFTLTISSVQAEDLAVYYCAQSFILRTFGGGTKLEIK | 24 pM | 53 pM | no binding | no binding | 1.13e-10 | 934 pM | 0.05 A450 | 1.57 A450 | 0.05 A450 | 2.79 A450 | 2.83 A450 | 2500 pM | 2740 MFI | – | – | – | – | –
2 | WBP3311_2.306.4 (antibody, IgG2b, V domains shown, Mouse monoclonal antibody from hybridoma; also called W3311-2.306.4; W3311-2.306.4-mIgG2bK) VH: QVQLQQSGPELVKPGASVRISCKASGFAFTDYYIHWVKQRPGQGLEWIGWISPGNVNTKYNENFKGRATLTADLSSSTAYMQLSSLTSEDSAVYFCARDGYSLYYFDYWGQGTTLTVSS VL: DIVMSQSPSSLTVSAGEKVTMSCKSSQSLLNSRTRKNYLAWYQQKPGQSPKLLIYWASTRQSGVPDRFTGSGSGTAFTLTISGVQAEDLAVYFCTQSHTLRTFGGGTKLEIK | 11 pM | 12 pM | no binding | no binding | 1.17e-10 | 191 pM | 0.05 A450 | 1.46 A450 | 0.06 A450 | 2.82 A450 | 2.91 A450 | 570 pM | 3360 MFI | 461 pM | – | – | – | –
3 | WBP3311_2.615.8 (antibody, V domains shown, Mouse monoclonal antibody from hybridoma; also called W3311-2.615.8) VH: QVQLQQSGPELVKPGTSMKISCKASGYSFTDFYTHWVRQRPGQGLEWIGWIFPGSDNIKYNEKFKGKATLTADTSSSTAYMQLSSLTSEDSAVYFCARDSVSVYYFDYWGQGTTLTVSS VL: DIVMSQSPSSLAVTAGEKVTMSCKSSQSLLNIRTRKNYLAWYQQKPGQSPKLLIYWASTRDSGVPDRFTGSGSGTDFTLTISSVQAEDLAVYYCTQSFILRTFGGGTKLEIK | 25 pM | 33 pM | no binding | no binding | 1.2e-10 | 2230 pM | 0.05 A450 | 1.55 A450 | 0.05 A450 | 2.71 A450 | 2.82 A450 | 4650 pM | 2220 MFI | – | no binding | 0.471 A450 | – | –
4 | WBP331_2.488.33 (antibody, V domains shown, Mouse monoclonal antibody from hybridoma; also called WBP3311_2.488.33; W3311-2.488.33) VH: QVQLQQSGPELVKPGTSVKISCKASGFSFTNYYIHWVKQRPGQGPEWIGWIFPGTVNTKYNEKFKGKATLTADTSSNTAFMQLSSLTSADSAVYFCARDSVGIYYFDFWGLGTTLTVSS VL: DIVMSQSPSSLAVSAGEKVTVSCKSSQSLLNNRTRKNYLAWYQQKPGQSPKLLIYWASTRESGVPDRFTGSGSGTDFTLTISSVQAEDLAVYYCTQSFILRTFGGGTKLEIK | 19 pM | 26 pM | no binding | no binding | 1.3e-10 | 1320 pM | 0.05 A450 | 1.7 A450 | 0.06 A450 | 2.83 A450 | 2.91 A450 | 2970 pM | 2270 MFI | – | – | – | – | –
5 | WBP3311_2.306.4-z1-uIgG1K (antibody, V domains shown, Humanized antibody; uIgG1K means human IgG1 constant region and kappa light chain; expressed in 293F cells; also called W3311-2.306.4-z1-uIgG1K) VH: QVQLVQSGAEVKKPGSSVKVSCKASGFAFTDYYIHWVRQAPGQGLEWMGWISPGNVNTKYNENFKGRVTITADKSTSTAYMELSSLRSEDTAVYYCARDGYSLYYFDYWGQGTLVTVSS VL: DIVMTQSPDSLAVSLGERATINCKSSQSLLNSRTRKNYLAWYQQKPGQPPKLLIYWASTRQSGVPDRFSGSGSGTDFTLTISSLQAEDVAVYYCTQSHTLRTFGGGTKVEIK | – | – | – | – | – | – | – | – | – | – | – | – | – | 253 pM | – | – | 43 pM | 53 pM

Continued, values first:

Row | EC50 [1] | EC50 [2] | binding result [3] | binding result [4] | Best fit-Bmax [5] | Kd [5] | ELISA (A450) [6] | ELISA (A450) [7] | ELISA (A450) [8] | ELISA (A450) [9] | ELISA (A450) [10] | EC50 [11] | MFI (FACS) [11] | EC50 [12] | binding result (mouse CD3epsilon protein [13]) | ELISA (A450) (mouse CD3epsilon protein [14]) | EC50 [15] | Kd [16] | Binder
6 | 28 pM | 69 pM | no binding | no binding | 1.3e-10 | 2290 pM | 0.05 A450 | 1.33 A450 | 0.06 A450 | 2.87 A450 | 2.95 A450 | 3710 pM | 2390 MFI | – | – | – | – | – | WBP3311_2.482.5 (antibody, V domains shown, Mouse monoclonal antibody from hybridoma; also called W3311-2.482.5) VH: QVQLQQSGPELVKPGSSVKISCKPSGYTFTTYYIHWVKQRPGQGLEWIGWIFPGSDNIKYNENFKDKATLTADTSSSTAYMQLSSLTSEDSAVYFCARDSVSRYYFDYWGQGTILTVSS VL: DIVMSQSPSSLAVSAGEKVTMSCKSSQSLVNDRTRKNYLAWYQQKPGLSPKLLIYWASTRESGVPDRFTGSGSGTDFTLTISSVQAEDLAVYYCAQSFILRTFGGGTKLEIK
7 | 28 pM | 74 pM | no binding | no binding | 1.12e-10 | 403 pM | 0.05 A450 | 1.61 A450 | 0.05 A450 | 2.76 A450 | 2.79 A450 | 910 pM | 2130 MFI | – | – | – | – | – | WBP3311_2.383.47 (antibody, V domains shown, Mouse monoclonal antibody from hybridoma) VH: QVQLQQSGPELVKPGASVRISCKTSGFTFTNYYIHWVIQRPGQGLEWIGWISPENGNTKYNENFQDKATLTADISSSTAYMHLSSLTSEDSAVYFCARDGYSLYYFDYWGQGTTLTVSS VL: DIVMSQSPSSLTVSAGEKVTMSCKSSQSLLNSRTRKNYLAWYQQKPGQSPKLLIYWASIRVSGVPDRFTGSGSGTTFTLTISGVQAEDLAVYYCTQSHTLRTFGGGTKLEIK
8 | 9 pM | 11 pM | no binding | no binding | 1.19e-10 | 252 pM | 0.06 A450 | 1.54 A450 | 0.07 A450 | 2.75 A450 | 2.92 A450 | 770 pM | 984 MFI | – | – | – | – | – | WBP3311_2.844.8 (antibody, V domains shown, Mouse monoclonal antibody from hybridoma; also called W3311-2.844.8; clone 2.844.8) VH: QVQLQQSGPELVKPGASVRISCKASGFAFTDYYIHWVKQRPGQGLEWIGWISPGNVNTKYNENFKGRATLTADLSSSTAYMQLSSLTSEDSAVYFCARDGYSLYYFDYWGQGTTLTVSS VL: DIVMSQSPSSLTVSAGEKVTMSCKSSQSLLNSRTRKNYLAWYQQKPGQSPKLLIYWASTRESGVPDRFTGSGSGTAFTLTISGVQAEDLAVYFCTQSHTLRTFGGGTKLEIK
9 | – | – | – | – | – | – | – | – | – | – | – | – | – | 1010 pM | – | – | 43 pM | 201 pM | WBP3311_2.166.48-z1-uIgG1K (antibody, V domains shown, Humanized antibody; uIgG1K means human IgG1 constant region and kappa light chain; expressed in 293F cells; also called W3311-2.166.48-z1-uIgG1K) VH: QVQLVQSGAEVKKPGSSVKVSCKASGYSFTTYYIHWVRQAPGQGLEWMGWIFPGNDNIKYSEKFKGRVTITADKSTSTAYMELSSLRSEDTAVYYCAIDSVSIYYFDYWGQGTLVTVSS VL: DIVMTQSPDSLAVSLGERATINCKSSQSLLNSRTRKNYLAWYQQKPGQPPKLLIYWASTRKSGVPDRFSGSGSGTDFTLTISSLQAEDVAVYYCTQSFILRTFGGGTKVEIK
